# Reference: the RNAGym collection of RNA variant scans (doi:10.1073/pnas.2313332121)
# Variants at the floor of the assay were thinned out.
# B1: TPR 5TU (parent)
# chain: GGAUCUUCUCGAUCUAACAAAAAAGACAAAUCUGCCACAAAGCUUGAGAGCAUCUUCGGAUGCAGAGGCGGCAGCCUUCGGUGGCGCGAUAGCGCCAACGUUCUCAACUAUGACACGCAAAACGCGUGCUCCGUUGAAUGGAGUUUAUCAUG
# Variants of: B1
# Assay: polymerase ribozyme fitness, log enrichment relative to wild type (log ratio); higher = more active; in vitro selection for triplet polymerase activity
# Procedure, shortened: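 PCR was used to build mutant libraries for each subunit of a heterodimeric triplet polymerase ribozyme, which were then transcribed. A single in vitro selection round, in triplicate, used a frozen incubation at −7 °C and recovered extended constructs by gel excision, streptavidin beads and RT-PCR. Fitness is the logarithm of genotype enrichment relative to wild-type enrichment, averaged over replicates with inverse-variance weights. The logarithm is base 2, and after Illumina sequencing only genotypes with ≥10 input reads and ≥1 read per output were kept.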
row,Variant,polymerase ribozyme fitness (log ratio)
1,A24U U56A G62C,-1.06
2,G25C A39U U44C A91G C95U,≤ -4.2
3,G25C,-2.52
4,G25A,-1.62
5,G25U,-1.73
6,A22U G86A G92U,-1.74
7,A23U C57U,-3.64
8,A23U A52G C76U C79A C103A,≤ -4.2
9,A24U C54A G58A G84A A120G G126U,-1.19
10,A22U U53A G88A C116G A142G A150C,≤ -4.2
11,A23U A49C U61G C87A,≤ -4.2
12,A24C C75A A106U C132G U139C A142U,≤ -4.2
13,A24C A37C U53A A66U C95A C114G U135C U144A,≤ -4.2
14,A24C C85U,-3.65
15,G25C C105U U144C,-2.67
16,A24U C32G U55G U78A U104G,≤ -4.2
17,G25A C51U G59C G88A U102G G136U,≤ -4.2
18,A24G G50C C72U C87G U111C,≤ -4.2
19,A22U U56A,-0.239
20,A24U C27U C36U G58C G83A G112U A121G G124C,≤ -4.2
21,G25C A60U C93A C95G A137G,≤ -4.2

row,Variant,polymerase ribozyme fitness (log ratio)
1,A22U A41C G70C U82G,≤ -4.2
2,A23G C35U U56A C85A C118U G124U,-4.08
3,A24G C35U A89U G92C C125A,≤ -4.2
4,A22U C27G C57G U61A C95U U104G U145G,≤ -4.2
5,A24U C79U U102G C118U A119G G140A,≤ -4.2
6,G25A C72U G80U C93A C114U,≤ -4.2
7,A23C C43U A47C C57G C87A A121G G143C U144G,≤ -4.2
8,A24U A37U G42C C75G,-3.99
9,A24C G34A C96G G117C U135G U139A U145A,≤ -4.2
10,A23C A39G C63U U104C C108G U135C,≤ -4.2
11,A23C U53A C93U U134G,≤ -4.2
12,A24U A49U C51U G70A C85U G112U C114A A122U U146C,≤ -4.2
13,A24U A28C A52G G71A C96G A137C,≤ -4.2
14,A24U G59U C87U G128A G140U U151C,≤ -4.2
15,A24U A97G U151C,≤ -4.2
16,G25C G86A G94U,-3.91
17,A22U A24G U31A U56G C79U U90G C95U A97C A120U C125G,≤ -4.2
18,A23C G67A A73U C96U G140C,≤ -4.2
19,A22U C57U U78A C79U G84C G117C,≤ -4.2
20,A24G C38G A40U A110C,≤ -4.2
21,A23G A47C,-2.96

row,Variant,polymerase ribozyme fitness (log ratio)
1,A23U G42U G58U C75U U148G,≤ -4.2
2,A23U C96U U127C U144G A150G,≤ -4.2
3,A23G C32G C57U G74A C93U U101G A137U,≤ -4.2
4,A23G U44G U53G A91C C95U C103A G117A A121C G126A,≤ -4.2
5,A22U A26U,-2.88
6,A24U A28U A39C G59C A60U A66G G68C C79G G81A C116G C125U,≤ -4.2
7,A24C U53A G81C C95U G141A,≤ -4.2
8,G25C C54U A73G G84A C85A A89C,≤ -4.2
9,A23U U55A U61C G67A C87U G126U G136C G140U,≤ -4.2
10,G25C C27U U45C G71U U82A G83A G92U,≤ -4.2
11,A22U C125U,-0.442
12,A24U A121U G124U,-1.16
13,A23G A26U G94C A110C,≤ -4.2
14,A22U G25C G48C A122U,≤ -4.2
15,A23C A29G G81A G84U A122G G126A U135A,≤ -4.2
16,A23C C27U A29G C87U A110G,≤ -4.2
17,A23U A40U A73G,≤ -4.2
18,A23U C99U,-3.84
19,A23C G48C G68C C99U U101C A122U U144G,≤ -4.2
20,A23C G58A G62A C87A C116G U135G,≤ -4.2
21,A24U A49C C54U C75G C85A A122U U144C A147C,≤ -4.2

row,Variant,polymerase ribozyme fitness (log ratio)
1,A24U U33G U77A C87U,≤ -4.2
2,A24U A113C,-3.05
3,A22U C35U U55A G59A G65A C85U C105A,≤ -4.2
4,A23U C72U G83A U109A U151G,≤ -4.2
5,A22U G50U,1.37
6,A22U G50C,-2.99
7,A24C C32U A39U U90A C95G A138U U144A,≤ -4.2
8,A22U C54A A91G,-3.53
9,G25C C69G C96A C99U C118A,≤ -4.2
10,A23C C51U G58A C75U C85G G143A U145G,≤ -4.2
11,G25A C51U G92U A119U G124U,-3.78
12,A24U U56A,0.265
13,A22U C76U,0.515
14,A24U A28G A29U C93G C114U,≤ -4.2
15,A23C U45C A52C U55A C75G C76U C93A A119G G143U,-4.17
16,A23C A60U G84U C105A,≤ -4.2
17,A24U C99U,-1.46
18,G25C G48A C87U A142G,-4.11
19,A22G G65A A97U,-2.68
20,A24U C57U C69G G84A C87A A115C,≤ -4.2
